Data on one molecule can be found in article PMC2699511.

The target in this data set is GST-Vif wild type (HIV-1, UniProt P69723 1-192). Put plainly: EMSA. In general terms: A gel shift assay detects complexes by their altered migration in electrophoresis.
Sequence of GST-Vif wild type (P69723 whole entry): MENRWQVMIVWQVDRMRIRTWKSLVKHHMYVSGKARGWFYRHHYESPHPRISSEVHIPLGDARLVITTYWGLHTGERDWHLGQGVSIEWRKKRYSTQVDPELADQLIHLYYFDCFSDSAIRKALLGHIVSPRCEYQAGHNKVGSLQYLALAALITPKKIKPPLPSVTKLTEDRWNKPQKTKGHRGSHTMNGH

B1: poly(rA40) (ssRNA)
RNA: AAAAAAAAAAAAAAAAAAAAAAAAAAAAAAAAAAAAAAAA
With B1, the binding result was “binds”.
